± gives the uncertainty stated by the source.
B1: Far upstream element-binding protein 2, residues 142 to 214; numbered along this chain, Q92945 (parent)
chain: RTSMTEEYRVPDGMVGLIIGRGGEQINKIQQDSGCKVQISPDSGGLPERSVSLTGAPESVQKAKMMLDDIVSR

Variants of: B1
Test: abundance fitness (aPCA) (normalised: wild type 0, dead -1); higher = more abundant; growth selection in yeast, the domain comes from the species named
Conditions: Homo sapiens

Variant | abundance fitness
RTSMTEEYRVPDGMVGLIIGRGGEQINKIQQDSGCKVQISPDSGGLPERSVSLTGAPESVQKAGMMLDDIVSR [K64G] | -0.757 ± 0.041
RTSMTEEYRVPDGMVGLIIGRGGEMINKIQQDSGCKVQISPDSGGLPERSVSLTGAPESVQKAKMMLDDIVSR [Q25M] | -0.127 ± 0.095
RTSMTEEYRVPDGMVGLIIGRGGEIINKIQQDSGCKVQISPDSGGLPERSVSLTGAPESVQKAKMMLDDIVSR [Q25I] | -0.015 ± 0.11
RTSMTEEYRVPDGMVGLIIGRGGEQINKIQQDSGCKVQISPDSGGLPERSVSLTGAPEDVQKAKMMLDDIVSR [S59D] | 0.003 ± 0.06
RTSMTEEYRVPDGMVGLIIGRGGEQINKIQQDSGCKVLISPDSGGLPERSVSLTGAPESVQKAKMMLDDIVSR [Q38L] | -0.112 ± 0.05
RTSMTEEYRVPDGMVGLIIGRGGEQINKIQQDSGCKVQISPDSGGLPERSVSLTGAPESVQKAKAMLDDIVSR [M65A] | -0.008 ± 0.043
RTSMTEEYRVPDGMVGLIIGRGGEQINKIQQDSGCKVQISPDSGGLPERSVTLTGAPESVQKAKMMLDDIVSR [S52T] | 0.068 ± 0.049
RTSMTEEYRVPDGMVGIIIGRGGEQINKIQQDSGCKVQISPDSGGLPERSVSLTGAPESVQKAKMMLDDIVSR [L17I] | -0.045 ± 0.083
RTSMTEEYRVPDGMVGLIIGRGGEQINKIQQDSGCKVQISPDSGGLPERNVSLTGAPESVQKAKMMLDDIVSR [S50N] | -0.085 ± 0.11
RTSMTEEYRVPDGMVGLIIGRGGEQINKIQQDSGCKVQISPDSGGLPERFVSLTGAPESVQKAKMMLDDIVSR [S50F] | -0.218 ± 0.092
RTSTTEEYRVPDGMVGLIIGRGGEQINKIQQDSGCKVQISPDSGGLPERSVSLTGAPESVQKAKMMLDDIVSR [M4T] | -0.063 ± 0.049
RTSATEEYRVPDGMVGLIIGRGGEQINKIQQDSGCKVQISPDSGGLPERSVSLTGAPESVQKAKMMLDDIVSR [M4A] | -0.716 ± 0.052
RTSMTEEYRVPDGMVGLIIGRGGIQINKIQQDSGCKVQISPDSGGLPERSVSLTGAPESVQKAKMMLDDIVSR [E24I] | -0.251 ± 0.11
RTSMTEEYRVVDGMVGLIIGRGGEQINKIQQDSGCKVQISPDSGGLPERSVSLTGAPESVQKAKMMLDDIVSR [P11V] | -0.425 ± 0.052
RTSMTEEYRVPDGMVGLIIGRYGEQINKIQQDSGCKVQISPDSGGLPERSVSLTGAPESVQKAKMMLDDIVSR [G22Y] | -0.226 ± 0.083
RTSMTEEYRVPDGMVGLIIGRGGEQINKIQQDSGCKVQISPDSGGLPERSVSLTDAPESVQKAKMMLDDIVSR [G55D] | -0.83 ± 0.087
RTSMTEEYRVPDGMVGLIIGRGGEQINKIQQDSGCKVQISPDSGGLPERSVSLTEAPESVQKAKMMLDDIVSR [G55E] | -0.927 ± 0.09
RTSMTEEYRVPDGMVGLIIGRGGEQINKIQQDSGCLVQISPDSGGLPERSVSLTGAPESVQKAKMMLDDIVSR [K36L] | -0.043 ± 0.047
RTSMTEEYRVPDGMVGLIIGRGGEQINKIQQDSGCNVQISPDSGGLPERSVSLTGAPESVQKAKMMLDDIVSR [K36N] | 0.073 ± 0.086

Variant | abundance fitness
RTSMTEEYRVPDGMVGLIIGRGGEQINKIMQDSGCKVQISPDSGGLPERSVSLTGAPESVQKAKMMLDDIVSR [Q30M] | 0.107 ± 0.066
RTSMTEEYRVPDGMVGLIIGRGGEQINKIQQDSGCKVQISPDSGGLPERSVSLTGTPESVQKAKMMLDDIVSR [A56T] | 0.113 ± 0.051
RTSMTEEYRVPDGMVPLIIGRGGEQINKIQQDSGCKVQISPDSGGLPERSVSLTGAPESVQKAKMMLDDIVSR [G16P] | -0.015 ± 0.046
RTSMTEEYRVPDGMVALIIGRGGEQINKIQQDSGCKVQISPDSGGLPERSVSLTGAPESVQKAKMMLDDIVSR [G16A] | -0.037 ± 0.043
RTSMTEEYRVPDGMVGLIIGRGGEQINKIQQDSGCKVQISPDSGGLPERSVSLTGAPESVCKAKMMLDDIVSR [Q61C] | -0.164 ± 0.071
RTSMTEEYRVPDGMVGLIIGRGGEQINKIQDDSGCKVQISPDSGGLPERSVSLTGAPESVQKAKMMLDDIVSR [Q31D] | -0.16 ± 0.081
RTSMTEEYRVPDGMEGLIIGRGGEQINKIQQDSGCKVQISPDSGGLPERSVSLTGAPESVQKAKMMLDDIVSR [V15E] | -0.03 ± 0.065
RTSMTEEYRVPDGMVGLIIGRGGEQINKIQQDSGCKVQISPDSGGLPERSVSLTGAPESVQKAKMMLPDIVSR [D68P] | -0.882 ± 0.063
RTSMTEEYRVPDGMVGLIIGRGGEQINKIQQDSGCKVQISPDSGGLPERSVSLTGAPESVQKAKMMLSDIVSR [D68S] | -0.138 ± 0.04
RTSMTEEYRVPDGMVGLIIGRGGEQINKIQQDSGCKVQISPDSGGLPERSVSLTGAPESVQLAKMMLDDIVSR [K62L] | -0.169 ± 0.043
RTSMTEEYRVPDWMVGLIIGRGGEQINKIQQDSGCKVQISPDSGGLPERSVSLTGAPESVQKAKMMLDDIVSR [G13W] | -0.097 ± 0.051
RTSMTEEYRVPDEMVGLIIGRGGEQINKIQQDSGCKVQISPDSGGLPERSVSLTGAPESVQKAKMMLDDIVSR [G13E] | 0.12 ± 0.051
RTSMTEEYRVPDGMVGLIIGRGGEQINKIQQDSGCKVQISPDSGGLPERSVSLTGAPESVQKAKMMLDDIRSR [V71R] | -0.224 ± 0.04
RTSMTEEYRVPDGMVGLIIGRGGEQINKIQQDSGCKVQISPDSGGLPERSVSLTGAPESVQKAKMMLDDIESR [V71E] | -0.485 ± 0.052
RTSMTEEYRVPDGMVGLIIGQGGEQINKIQQDSGCKVQISPDSGGLPERSVSLTGAPESVQKAKMMLDDIVSR [R21Q] | -0.015 ± 0.045
RTSMTEEYRVPDGMVGLIIGMGGEQINKIQQDSGCKVQISPDSGGLPERSVSLTGAPESVQKAKMMLDDIVSR [R21M] | -0.002 ± 0.047
RTSMTEEYRVPDGMVGLIIGRGGEQINKIQQDSGCKVQISPDSGGLPPRSVSLTGAPESVQKAKMMLDDIVSR [E48P] | -0.065 ± 0.056
RTSMTEEYRVPDGMVGLIIGRGGEQINKIQQDSGCKVQISPDSGGLPERSVSLHGAPESVQKAKMMLDDIVSR [T54H] | -0.076 ± 0.077
RTSMTEEYRVPDGMVGLIIGRGGEQINKIQQDSGCKVQISPDSGGLPERSVSLTGAGESVQKAKMMLDDIVSR [P57G] | -0.434 ± 0.048

From the Human Domainome abundance scans (Beltran et al. 2025)
